Test results reported in publication PMC6618080.

Molecular target: Hepatitis B e antigen (HBeAg), purified (hepatitis B virus)
Assay: SEC-MALS

**Q.** “Hepatitis B e antigen (HBeAg), purified (natural protein)” was tested. Which stoichiometry N did it give?
**A.** 2
